Data published in FireProtDB (doi:10.1016/j.jmb.2009.07.074).

Settings: Rhodopseudomonas palustris (strain ATCC BAA-98 / CGA009); pH 6.5; 25 °C; GdnHCl; CD; MES 20 mM; NaCl 40 mM; whole UniProt chain shown

B1: Cytochrome c' wild type, P00149 (protein)
chain: MKLRIATIAGLVVLGSGFAVAQTDVIAQRKAILKQMGEATKPIAAMLKGEAKFDQAVVQKSLAAIADDSKKLPALFPADSKTGGDTAALPKIWEDKAKFDDLFAKLAAAATAAQGTIKDEASLKANIGGVLGNCKSCHDDFRAKKS
denaturant m value: 5.12 kcal/mol/M
denaturant midpoint (higher = more stable): 1.71 M
unfolding free energy: 8.77 kcal/mol
